Laboratory results from the DeepSol protein solubility set.

Experiment: soluble on expression in E. coli; label from the status in PepcDB or PDB records

Sequence	soluble on expression in E. coli
SLSETLYTGISQLATPRPGPQRGAAMGDLHIIEDAALLVRGGVIQWVGPRAAAPTATHVHDLGGRAVVPGLVDPHTHAVWAGDRLSDWEAKLQGATYEEILARGGGIRSTMRATAAADVAELVALARPRLASLRASGATTTEVKSGYGLDFDAELRMLRAVRELQAEFELRPTLLIHVPPQEGRAEYVVGVCAELIPQVAREGLAEALDVFCEKEAFSVEETRTMFAAAQAHGLRVKLHADQFHAIGGTELACEVGALSVDHLEASGAAQIAALAASETVATILPGVTLHLGLPAAPGRQLIDSGAIVAIGTDLNPGSSPLFSTQLALALAVRLCLLTPAEALSACTVNAAYALGLSDRGSLSAGQRADFLVLNGQDWREVAYTLGGNAVAEVYLAGAQL	soluble
MAGYGAKGIRKVGAFRSGLEDKVSKQLESKGIKFEYEEWKVPYVIPASNHTYTPDFLLPNGIFVETAGLWESDDRKKHLLIREQHPELDIRIVFSSSRTKLYKGSPTSYGEFCEKHGIKFADKLIPAEWIKEPKKEVPFDRLKRKGGKK	soluble
SAAFPQWTRVDDKRFELALLQIPEGSPNFIENIAYYLQKPVKEVEYYYCALVHDIERIESGKYVLPKYPEDDYVKLTEAGESKGNGKKTGIPWSEEEQRLFLEGLNKFGKGDWKNISRYCVKSRTSTQVASHAQKYFARQKQESTNTKRPSIHDMTLGVAVNVPGSNLESTGQQPHFGDQIPSNQYYPSQENFRGFDQRW	soluble
GILELAGTVGCVGPRTPIAYMKYGCFCGLGGHGQPRDAIDWCCHGHDCCYTRAEEAGCSPKTERYSWQCVNQSVLCGPAENKCQELLCKCDQEIANCLAQTEYNLKYLFYPQFLCEPDSPKCD	soluble
MSKKIKVGIVGATGYTGVELLRLLAAHPDVEVAAVTSRSEAGTAVADYFPSLRGVYGLAFQTPDEAGLEQCDIVFFATPNGIAMKDAPRLIEQGVRVIDLSADFRIRDIPTWEHWYGMTHAAPDLVSQAVYGLSELNREAVAQARLVANPGCYPTCVSLPLVPLLRQCRLKPGMPLIADCKSGVSGAGRKGNVGSLLCEAGDNFKAYGIAGHRHLPEIRQTIAGLQDGIAEGFVFTPHLAPMIRGMHATVYLHLSDGSDPETVLRDYYRDSPFVDILPTGSAPETRSVRGANLCRISIQQAAQSDVWVVLSVIDNLVKGAAGQAVQNMNIMFGLEETHGLDAIPLLP	not soluble
MGSDKIHHHHHHMAKQVVKRTIIGSITNHQQVQDDLDSLGFAASKLWNVARWTTGRIWNETGHIPEDGELKSYLKSHERYSDLHSQSSQRVLEELSEAFTGWYGKRRNGDSKANPPAYRKHNDEHPRSTLTFKGAGFKLDTTNGRLRLSKGENLKEYWSDFVLCDIQIRPDVDLSAIESVQQVRAVWNKQRNEWELHVVCNVTVDIPENSAEKTVGIDLGICNFAALAFENQESELYPLNCLKQDDYYYSKHIARCDDSSSEEATRLHAKKSNRRTHYFHTLSKHIVERCVDENVGVIAIGDLSGIREDEDGEMKDWGKHGNLDLHSWAFDRFTDMLEYKAEEVGISVKRVSEENTSKSCSSCGCERDTNRVERGLYVCNECELVANADVNGAENIRQQVSPNPRSEDRSNGWLAQPSTLLFDKETGVFAPQEQVVS	not soluble
NFLLTQPHSVSESPGKTVTISCTRSSGSIANNYVHWYQQRPGSSPTTVIFEDDHRPSGVPDRFSGSVDTSSNSASLTISGLKTEDEADYYCQSYDHNNQVFGGGTKLTVLG	soluble
AHHHHHHGSRELVEIIKGIGIEGAKEVEEKVDRQFYALQYLFRHQDPEMFIKLVIANSLVSYQLTGRGEDWWWEFARYFSGREVDSIWKAYGEFLPKSKNNRRLIEAKLNRIRKVEGFLSTLTLKDLEGYYKNMKMLWKALIKIMGSREDSKTIVFTVKMFGYASRIAFSRFIPYPMEIPIPEDLRIKSVTSKLTQEKPTKFWMKIGQESGVPPLHIDSLIWPLLGNADLTPLDIELRNKLMKLTELLGL	soluble
MSLSDPIKITFSVEGLSHPFLVKQKQLAEETGKRLGAQVNVISANDDVNQQFNDIQTAIAQGTDALMMMPATTQGLDAVLKQAEAAQIPYFFSQKGMLGVEPASQVLAPYSNEGQQLGEWVVEHYKGQEDVKVAIISGIPGDQSSDARVNSFLLPLLRSCNFNVVANQPGNYRRGDSEKAAQNMLAANPDIDLLFGANDEAALGGIAALKSSGRQGVDVVGLDGQTDMFAAIQSGQALATVIHKPTAGIVVEEAVDYLRGKPVPEYRVLDEDLVTKETIETGAQPAEGHHHHHH	soluble
MSLKITNVEAVALDVPIMVRHRKDPFVRQCNLVRIDTDSGISGYGYTSPGEWHSTAAKVVNDMFRDVLIGQNPCKINSVISSLSTRFNRHRATGAWASAVSMVDIGLWDLLGKLYGVPTSVLLGGARTEVPVYITFGLAEYSTEELVDTVSHLVDEGHTRFKMIVGGLRSRPITREESLRPGGSHWFQGFTEDLLLNDVKRVAAVREAIGPDKGLMVDGNGAFPLGEAKRLAQNLEPFNLIWFEEPVLGNDPDLLQRLRDQTTVPIAAGQNIGSLAAHRTLIESKSYDICQLNVTHCGGYSEALKIAHLAEAHNMPIATGGAQPHHNMHFHAGVQNGGLVEFHWLSWKVGEALFVDPPAPRNGFVSLTDEPGLGLEVRPDAIEKFRVEGHHHHHH	soluble
MSLGQDGFRLADYIREHVENGDKLVIRVSYHNTSLGFANPMREGVEKAKRELGVDAELIGPANGSAQEQVSELQTLISQQKVDGLAVSSASNDALKPVIAQAYNAGIPIISFNTNNPGSKQMAFVGQDLVQSGRFEAEQLRKELGDRKGKVVVFSVDTGAGWSNDRFSGFEAGMEGAEGIQIEGPINSGNEPRQAFNAVQNTMTANPDAIAIASLDCCSVDAAAKWVQQNGKKGEIIVVGFDVLPQTADFIRNGVIQFTISQNPVEQGYQSVKILNDFLKKNKPLRDVNTGTKLVDKSNIDEVPLEEGHHHHHH	soluble
MSLTLAFAYVRASTIEEVRQGSNERQKEAIRQYTYQKGYELEIFEDKAKSGRNTLRPEFERMLKSLDRRPQIVIVSKIDRFARSLSDLLKTLEYLDQNGVGFVSVNDPGIDTTTPNGRLLLQILGAFAEFERNMINSRTKAGREQAQSKGVKKGIITITTDPNSSSVDKLAAALEHHHHHH	soluble
MEDLNFEERGSTQIPASLQQHFSAKLGRQNELEKTPSRGGLGLVVNSSKTPGGKSLQSLASACKVPPSTKKNTIPIAFECYEDETDDQIADVATIKKTEKHPCSPIDTANRCETFDSLAADIEDDMLNLEDQDVVLSEDRPYGDVIDPAESEAEALAELGVEEWDSYPPIDPASRIGDDFNYVLRTEDFAEEGDVKLEETRHRTVIADIDEVKMSKAERNELFSMLADDLDSYDLLAEEANLPL	not soluble
VAATKASTATDEPVKRTATKSPAASASGAKTGAKRTAAKSASGSPPAKRATKPAARSVKPASAPQDTTTSTIPKRKTRAAAKSAAAKAPSARGHATKPRAPKDAQHEAATDPEDALDSVEELDAEPDLDVEPGEDLDLDAADLNLDDLEDDVAPDADDDLDSGDDEDHEDLEAEAAVAPGQTADDDEEIAEPTEKDKASGDFVWDEDESEALRQARKDAELTASADSVRAYLKQIGKVALLNAEEEVELAKRIEAGLYATQLMTELSERGEKLPAAQRRDMMWICRDGDRAKNHLLEANLRLVVSLAKRYTGRGMAFLDLIQEGNLGLIRAVEKFDYTKGYKFSTYATWWIRQAITRAMADQARTIRIPVHMVEVINKLGRIQRELLQDLGREPTPEELAKEMDITPEKVLEIQQYAREPISLDQTIGDEGDSQLGDFIEDSEAVVAVDAVSFTLLQDQLQSVLDTLSEREAGVVRLRFGLTDGQPRTLDEIGQVYGVTRERIRQIESKTMSKLRHPSRSQVLRDYLD	soluble
AIASSLVYPVSQSYHYLSTSNNRLFSAVPSEEKSNKEVKGKAQETSKENTSPATLQDSFGFQLKTGTPDRMPSSFDQATGSERAELEDPDLYRNPEKYVNSRVMIAPFGTKEKPLLIPSRYDSRIIGCTGREAPNDHGVYYMTVKENHDKVCPLCGQVFRLKKVAGGEEASHHHHE	soluble
MPGHRITLTGEKQTLLITLYAKALDSRLDDSILHDRFAEEAVRQIDFDFSRVALGKGNERALAMRSHYFDQACREFLGRHPEGQVLNLGCGLDSRIYRVDPPAELPWFDLDYPEVMDLRERLYPPRAGAYRALRHSVDDDGWLQGVPRERPALVLAEGLMPYLRESQVRRLVERLVDHLGSGELLFDGYGRLGIMLLRLYPPLRETGAQVHWSIDDPRELERWHPALRFIEEVTDYDPQDVAKLPQSSRLMLPIYNGFAFLRRMGRLIRYRWPRV	not soluble
MAMKIPKSGYNRFMKEGAQHFKGTDEAVQRNIEACTELASQIRSAYGPNGMNKMVINHIEKLFVTNDAATILKELEIQHPAARIIIMATEMQEKQIGDNTNTVVILAAALLEHAANLIHMGMTPQEVAAGYEQAAEKALEILPTLVVKEATDMKNIEEVRQYIRSAITSKQYDNEDIIADLVAKACVTTCPANSFNFNVDNIRICKIIGSGVHTSTVMNGMVFKRGAEGEIREARDARIAVYTCPFDLTQTETKGTVLIENADELRNFSKGEEAEVEEQVKAIADNARSSILAKFWLMNFSKGEEAEVEEQQVKAIADNGVKVVVAAGKFGDMYLHFLNKYKIMAVRLTSKFDLRRLCRTVGAQPQARICAPAVNLLGHCDSVAVQEIGDENVVVFDKKSETGKVATIIIRGSSQSRIDDVERAVDDAVNTYKALTKDGKLLAGAGAVEIELAKEIESFGAKAPGLEQYAIKKFAHALETLPKAIAENAGMPTTETLTKLYAEHVAGKKNAGIDIWKRETMDAVVNNIFDLYAGKRLAIKLATDAASTILKVDQIIMSKQATGGPKPRGPKAQDEDDDGMA	not soluble
LDLNNPQYNDVYEINYDFIYSLRNIMDYVVRGDEWALDDYYEALDIRNDDLRWVLSDVQYRRFLGAEYFYRPIYVTGGRWNFRIYINYPNRSLFYFGVPYHYRTYCGAHYRPHIHHVSYYRGRYNNLVHYPTPYRVRDQRVFHSYRRSDFGSVRFRPNTSVRPHNAPTRPGTSGRPGTTSR	not soluble
MSIRIDRQRCIGCGKCAEICPGNLIVIDEDKKAFVRDPRDCWGCAACVKECKFSAIRYFLGAEIGGNGTTMYVEKENDEIMYWYFEKPSGEKEMIVQNLKDNTTYLEHHHHHH	not soluble
MSLTETTDLYRMSSSLRVVALAETLQRARAFASRLGIIRVTDTTRLDCIGIPVFASIRPTALPGSLCVNAGKGLRPEEARVGAYMEAIEFAMAEYGRSAVDYVMATPRDVLDGRSRPEAILDFCPVFGAQITLDDPMPCVEAEELLSSTRCLVPAELVYVPAPAVEGVQRHFGSSSNGLCSGNSVWEASVHGLAEVIERDIQSFCFLHDTSVLVDIASLPPQPAALARQIGEAGFTLRLRYVENIFELPYFAAYVMEPDPVDAVYICGGFGCHPFKEIAAVRAICEAVQGRLSFIHGGRDDLIERHRLLAQMNGEQELAFSRKLAAKVSRPEGMIGFEAIGDRSGEVCDLSSAWEVLVAAIRKVGIAHVCRVVFTQPHDPVQVLKLIVPRLEMFDRSTRRIGPRLRDHARFHEGHHHHHH	not soluble
MKWDEIGKNIAKEIEKEILPYFGRKDKSYVVGTSPSGDETEIFDKISEDIALKYLKSLNVNIVSEELGVIDNSSEWTVVIDPIDGSFNFINGIPFFAFCFGVFKNNEPYYGLTYEFLTKSFYEAYKGKGAYLNGRKIKVKDFNPNNIVISYYPSKKIDLEKLRNKVKRVRIFGAFGLEMCYVAKGTLDAVFDVRPKVRAVDIASSYIICKEAGALITDENGDELKFDLNATDRLNIIVANSKEMLDIILDLL	soluble
